The text below walks through data of PMC12560246, “Calorimetric characterization of the stability and activity of trimethylamine‐N‐oxide (TMAO) demethylase from Methylocella silvestris BL2” (Protein Science : A Publication of the Protein Society, 2025).

In data set [1] the target is trimethylamine-N-oxide demethylase (Tdm) from Methylocella silvestris BL2 (Methylocella silvestris BL2). Description: SEC; analytical SEC, HiLoad 16/600 Superdex 200 pg, 50 mM TRIS pH 7.9, 150 mM NaCl, 0.5 mL/min; column calibrated with globular proteins; 0.5 mL of concentrated IMAC fractions injected.
Substrate in data set [2]: C[N+](C)(C)[O-]
In words: isothermal titration calorimetry, multiple injection, Michaelis-Menten fit. It is filed as biochemical, Methylocella silvestris. The following applies: 50 mM KPi pH 7.0, 25 °C, 100 nM Tdm, multiple injections of 600 μM TMAO. The text has this: isothermal titration calorimetry, multiple injection, Michaelis-Menten fit on Tdm (trimethylamine-N-oxide demethylase)

Values joined by “and” are separate entries in the source; they are usually repeats but may differ in a detail not shown here. Identical values can stand only once.

Regarding “trimethylamine-N-oxide demethylase (Tdm) from Methylocella silvestris BL2 (enzyme)”, the stoichiometry N in data set [1] is 8 and 5.

B1: Tdm (trimethylamine-N-oxide demethylase) (Methylocella silvestris BL2) (protein)
chain: MNVNAAAPKGSFDLDAPRRVQTLSAAGGGGVQFDLSAGDEAIITNLEGGQAGELLTASGEPLRLTPGSAPTDEAGVRAVAGDLAAAFLAARQGTERFLATPLFHAAAEPGETFRFKAEADMRCLLLAPGEPMAPDAQNPPTELRLDIFSSRPTGGAAPPSLAPVKLDLRVDAATARAYRVSAGDYIQIIDVDGRQCSDLVAFDARALAEGRELGVDPTVTRTLMGSATPGPGLHAKYFDQDMNPLFEIVRDTVGRHDTFMLACNAKYYDDMGYPGHANCTDNFNAALAPFGVAPRRGWPAINFFYNTFVAEDNTIGLDEPWSRPGDYVLLRALTDLVCASSSCADDIDPANGWMPTDIHVRVYDAAASFSKGIAHRMTADAAPRLTRESGFHSRTSALTRSFADYRGFWTPQCYASEGPIAEYWACRERAVLIDLSALRKFEITGPDAEILLQSAVTRNIRKLAVGQIVYTAICHEHGGMLDDGTVFRLGDNNFRLVCGEDYCGVFLRELAARQGLRAFVRSSTDQLHNVALQGPKSRDILREILVTPPHRASADELKWFRFTVGKIAGLPVLVSRTGYTGELGYEIWLHPGSAVAVWDALMAAGKPYGIAPFGFAALDMVRIEAGLIFAHHEFCDETDPFEAGIGFAVPAEKADPYVGSEALARRRASPIRRLAGLDVAGNEAVAHGDPVFAGRAQVGVVTSAMRSPVLGRTIALARLDAACASIGTDLEIGKLDGRQKRIAATVARFPHYDPEKARVRA
notes: GenBank version '.14' [sic]
For B1, in data set [2], the Michaelis-Menten constant (Km) was 866 ± 72 µM, the Vmax was 18.5 µmol/min and the kcat stood at 15.48 ± 0.04 s⁻¹.
